Experimental data taken from publication PMC8096149.

Columns and labels:
Test in all cases: flow cytometry on cells
[1] = biological target: Donkey1.1 H31TAG scFv with AzF
[2] = biological target: Donkey1.1 H31TAG scFv with AzMF
[3] = biological target: Donkey1.1 H31TAG scFv with OPG
[4] = biological target: Donkey1.1 H54TAG scFv with AzF
[5] = biological target: Donkey1.1 H54TAG scFv with OPG
[6] = biological target: Donkey1.1 L93TAG scFv with AzF
[7] = biological target: Donkey1.1 L93TAG scFv with OPG
[8] = biological target: Bovine2.2 H31TAG scFv with AzF
[9] = biological target: Bovine2.2 H31TAG scFv with OPG
[10] = biological target: Bovine2.2 H54TAG scFv with AzF
[11] = biological target: Bovine2.2 H54TAG scFv with OPG
[12] = biological target: Bovine2.2 L93TAG scFv with AzF
[13] = biological target: Bovine2.2 L93TAG scFv with OPG

Kd [1] | antigen binding level relative to wild-type at 200 nM IgG (% of wild-type) [1] | antigen binding level relative to wild-type at 200 nM IgG (% of wild-type) [2] | Kd [3] | antigen binding level relative to wild-type at 200 nM IgG (% of wild-type) [3] | Kd [4] | Kd [5] | Kd [6] | Kd [7] | Kd [8] | Kd [9] | Kd [10] | Kd [11] | Kd [12] | Kd [13] | Substance
561 nM | < 10 | < 10 | 365 nM | < 10 | 213 nM | 55.8 nM | 125 nM | 45 nM |  |  |  |  |  |  | biotinylated donkey IgG (natural protein)
 |  |  |  |  |  |  |  |  | 546 nM | 601 nM | 380 nM | 183 nM | 332 nM | 179 nM | biotinylated bovine IgG (natural protein)
